These results are taken from US20230037815A1.

The chains are these.
B1: CNG-CD19-102 (antibody, V domains shown)
VH: QVQLVQSGAEVKKPGASVKVSCKASGYEFTDYIMHWVRQAPGQGLEWMGYINPYNDGSKYTEKFQPRVTMTSDTSISTAYMELSRLRSDDTAVYYCARGTYYYGPQLFDYWGQGTTVTVSS
VL: DIVMTQTPLSLSVTPGQPASISCKSSQSLETSTGTTYLNWYLQKPGQSPQLLIYRVSKRFSGVPDRFSGSGSGTDFTLKISRVEAEDVGVYYCLQLLEDPYTFGQGTKLEIK
B2: CNG-CD19-110 (antibody, V domains shown)
VH: QVQLVQSGAEVKKPGASVKVSCKASGYTFTDYIMHWVRQAPGQGLEWMGYINPYNDGSKYTEKFQGRVTMTSDTSISTAYMELSRLRSDDTAVYYCARGTYYYGPQLFDYWGQGTTVTVSS
VL: DIVMTQTPLSLSVTPGQPASISCKSSQSLETSTGTTYLNWYLQKPGQSPQLLIYRSSKRFSGVPDRFSGSGSGTDFTLKISRVEAEDVGVYYCLQLLEDPPTFGQGTKLEIK
B3: CNG-CD19-106 (antibody, V domains shown)
VH: QVQLVQSGAEVKKPGASVKVSCKASGYDFTDYIMHWVRQAPGQGLEWMGYINPYNDGSEYTEKFQGRVTMTSDTSISTAYMELSRLRSDDTAVYYCARGTYYYGPQLFDYWGQGTTVTVSS
VL: DIVMTQTPLSLSVTPGQPASISCKSSQSLETATGTTYLNWYLQKPGQSPQLLIYRVSRRFSGVPDRFSGSGSGTDFTLKISRVEAEDVGVYYCLQLLEDPYTFGQGTKLEIK
B4: CNG-CD19-103 (antibody, V domains shown)
VH: QVQLVQSGAEVKKPGASVKVSCKASGYTFTDYIMHWVRQAPGQGLEWMGYINPYNDGSKYTEKFQGRVTMTSDTSISTAYMELSRLRSDDTAVYYCARGTYYYGPQLFDYWGQGTTVTVSS
VL: DIVMTQTPLSLSVTPGQPASISCKSSQSLETATGTTYLNWYLQKPGQSPQLLIYRVSRRFSGVPDRFSGSGSGTDFTLKISRVEAEDVGVYYCLQLLEDPYSFGQGTKLEIK
B5: CNG-CD19-105 (antibody, V domains shown)
VH: QVQLVQSGAEVKKPGASVKVSCKASGYEFTDYIMHWVRQAPGQGLEWMGYINPYNDGSKYTEKFEGRVTMTSDTSISTAYMELSRLRSDDTAVYYCARGTYYYGPELFDYWGQGTTVTVSS
VL: DIVMTQTPLSLSVTPGQPASISCKSSQRLETSTGTTYLNWYLQKPGQSPQLLIYRVSRRFSGVPDRFSGSGSGTDFTLKISRVEAEDVGVYYCLQLLEDPPTFGQGTKLEIK
B6: CNG-CD19-108 (antibody, V domains shown)
VH: QVQLVQSGAEVKKPGASVKVSCKASGYDFTDYIVHWVRQAPGQGLEWMGYINPYNDGSKYTEKFQGRVTMTSDTSISTAYMELSRLRSDDTAVYYCARGTYYYGPQLFDYWGQGTTVTVSS
VL: DIVMTQTPLSLSVTPGQPASISCKSSQSLETVTGTTYLNWYLQKPGQSPQLLIYRVSKRFSGVPDRFSGSGSGTDFTLKISRVEAEDVGVYYCLQLLEDPPTFGQGTKLEIK
B7: CNG-CD19-109 (antibody, V domains shown)
VH: QVQLVQSGAEVKKPGASVKVSCKASGYDFTDYIVHWVRQAPGQGLEWMGYINPYNDGSLYTEKFQGRVTMTSDTSISTAYMELSRLRSDDTAVYYCARGTYYYGPQLFDYWGQGTTVTVSS
VL: DIVMTQTPLSLSVTPGQPASISCKSSQQLETSTGTTYLNWYLQKPGQSPQLLIYRASKRFSGVPDRFSGSGSGTDFTLKISRVEAEDVGVYYCLQLLEDPYSFGQGTKLEIK
B8: CNG-CD19-104 (antibody, V domains shown)
VH: QVQLVQSGAEVKKPGASVKVSCKASGYDFTDYIVHWVRQAPGQGLEWMGYINPYNDGSKYTEKFQGRVTMTSDTSISTAYMELSRLRSDDTAVYYCARGTYYYGPELFDYWGQGTTVTVSS
VL: DIVMTQTPLSLSVTPGQPASISCKSGQSLETSTGTTYLNWYLQKPGQSPQLLIYRVSRRFSGVPDRFSGSGSGTDFTLKISRVEAEDVGVYYCLQLLEDPYTFGQGTKLEIK
B9: CNG-CD19-101 (antibody, V domains shown)
VH: QVQLVQSGAEVKKPGASVKVSCKASGYDFTDYIMHWVRQAPGQGLEWMGYINPYNDGSKYTDKFQERVTMTSDTSISTAYMELSRLRSDDTAVYYCARGTYYYGPELFDYWGQGTTVTVSS
VL: DIVMTQTPLSLSVTPGQPASISCKSSQSLETTTGTTYLNWYLQKPGQSPQLLIYRASKRFSGVPDRFSGSGSGTDFTLKISRVEAEDVGVYYCLQLLEDPYTFGQGTKLEIK
B10: CNG-CD19-1 (antibody, V domains shown)
VH: QVQLVQSGAEVKKPGASVKVSCKASGYTFTDYIMHWVRQAPGQGLEWMGYINPYNDGSKYTEKFQGRVTMTSDTSISTAYMELSRLRSDDTAVYYCARGTYYYGPQLFDYWGQGTTVTVSS
VL: DIVMTQTPLSLSVTPGQPASISCKSSQSLETSTGTTYLNWYLQKPGQSPQLLIYRVSKRFSGVPDRFSGSGSGTDFTLKISRVEAEDVGVYYCLQLLEDPYTFGQGTKLEIK
B11: CNG-CD19-107 (antibody, V domains shown)
VH: QVQLVQSGAEVKKPGASVKVSCKASGYDFTDYIMHWVRQAPGQGLEWMGYINPYNDGSKYTEKFQHRVTMTSDTSISTAYMELSRLRSDDTAVYYCARGTYYYGPQLFDYWGQGTTVTVSS
VL: DIVMTQTPLSLSVTPGQPASISCKSSQSLETSTGTTYLNWYLQKPGQSPQLLIYRVSRRFSGVPDRFSGSGSGTDFTLKISRVEAEDVGVYYCLQLLEDPYTFGQGTKLEIK
B12: CNG-CD19-703 (antibody, V domains shown)
VH: QVQLQESGPGLVKPSQTLSLTCTVSGGSISTSTMGVGWIRQHPGKGLEWIGFIWWDDDKRYNPNLKSRVTMSVDTSKNQFSLKLSSVTAADTAVYYCARMELWSYYFEYWGQGTLVTVSS
VL: EIVLTQSPATLSLSPGERATLSCSASSSVSYMHWYQQKPGQAPRLLIYDTSKLASGIPARFSGSGSGTDFTLTISSLEPEDFAVYYCFQGSVYPFTFGQGTKLEIK
B13: CNG-CD19-704 (antibody, V domains shown)
VH: QVQLQESGPGLVKPSQTLSLTCTVSGGSIASGMGVGWIRQHPGKGLEWIGHIWWDDDKRYNPALKSRVTISVDTSKNQFSLKLSSVTAADTAVYYCARMELWSYYFDGWGQGTLVTVSS
VL: EIVLTQSPATLSLSPGERATLSCSASSSVSYMHWYQQKPGQAPRLLIYDTSKLASGIPARFSGSGSGTDFTLTISSLEPEDFAVYYCFQGSVYPFTFGQGTKLEIK
B14: CNG-CD19-710 (antibody, V domains shown)
VH: QVQLQESGPGLVKPSQTLSLTCTVSGVSISTSSMGVGWIRQHPGKGLEWIGHAWWDDDKRYNPALKSRVTISVDTSKNQFSLKLSSVTAADTAVYYCARMELWSYYFDPWGQGTLVTVSS
VL: EIVLTQSPATLSLSPGERATLSCSASSSFSYMHWYQQKPGQAPRLLIYDTSKLASGIPARFSGSGSGTDFTLTISSLEPEDFAVYYCFQGSVYPFTFGQGTKLEIK
B15: CNG-CD19-706 (antibody, V domains shown)
VH: QVQLQESGPGLVKPSQTLSLTCTVSGGSIASGMGVSWIRQHPGKGLEWIGHIWWDDDKRYNPALKSRVTISVDTSKNQFSLKLSSVTAADTAVYYCARMELWSYYFDPWGQGTLVTVSS
VL: EIVLTQSPATLSLSPGERATLSCSASSSVGYMHWYQQKPGQAPRLLIYDTSKLASGIPARFSGSGSGTDFTLTISSLEPEDFAVYYCFQGSVYPFTFGQGTKLEIK
B16: CNG-CD19-708 (antibody, V domains shown)
VH: QVQLQESGPGLVKPSQTLSLTCTVSGGSISTSTMGVGWIRQHPGKGLEWIGFIWWDDDKRYNPNLKSRVTMSVDTSKNQFSLKLSSVTAADTAVYYCARMELWSYYFDPWGQGTLVTVSS
VL: EIVLTQSPATLSLSPGERATLSCSASSSVGYMHWYQQKPGQAPRLLIYDTSKLSSGIPARFSGSGSGTDFTLTISSLEPEDFAVYYCFQGSVYPFTFGQGTKLEIK
B17: CNG-CD19-7 (antibody, V domains shown)
VH: QVQLQESGPGLVKPSQTLSLTCTVSGGSISTSGMGVGWIRQHPGKGLEWIGHIWWDDDKRYNPALKSRVTISVDTSKNQFSLKLSSVTAADTAVYYCARMELWSYYFDYWGQGTLVTVSS
VL: EIVLTQSPATLSLSPGERATLSCSASSSVSYMHWYQQKPGQAPRLLIYDTSKLASGIPARFSGSGSGTDFTLTISSLEPEDFAVYYCFQGSVYPFTFGQGTKLEIK
B18: CNG-CD19-709 (antibody, V domains shown)
VH: QVQLQESGPGLVKPSQTLSLTCTVSGGSISTSTMGVGWIRQHPGKGLEWIGFIWWDDDKRYNPNLKSRVTMSVDTSKNQFSLKLSSVTAADTAVYYCARMELWSYYFDPWGQGTLVTVSS
VL: EIVLTQSPATLSLSPGERATLSCSASSSVGYMHWYQQKPGQAPRLLIYDTSKLAFGIPARFSGSGSGTDFTLTISSLEPEDFAVYYCFQGSVYPFTFGQGTKLEIK
B19: CNG-CD19-707 (antibody, V domains shown)
VH: QVQLQESGPGLVKPSQTLSLTCTVSGGSISTSTMGVGWIRQHPGKGLEWIGFIWWDDDKRYNPNLKSRVTMSVDTSKNQFSLKLSSVTAADTAVYYCARMELWSYYFDPWGQGTLVTVSS
VL: EIVLTQSPATLSLSPGERATLSCSASSSVGYMHWYQQKPGQAPRLLIYDTSKLASGIPARFSGSGSGTDFTLTISSLEPEDFAVYYCFQGSVYPFTFGQGTKLEIK
B20: CNG-CD19-705 (antibody, V domains shown)
VH: QVQLQESGPGLVKPSQTLSLTCTVSGGSISTSGMGVGWIRQHPGKGLEWIGHIWWDDDKRYNPALKSRVTISVDTSKNQFSLKLSSVTAADTAVYYCARMELWSYYFDYWGQGTLVTVSS
VL: EIVLTQSPATLSLSPGERATLSCSASSSVGYMHWYQQKPGQAPRLLIYDTSSLASGIPARFSGSGSGTDFTLTISSLEPEDFAVYYCFQGSVYPFTFGQGTKLEIK

The target of the experiment is cynomolgus CD19 (cynomolgus). Nature of the experiment: Octet HTX (ForteBio), IgG on AHC sensor, 1:1 fit. A general note: Biolayer interferometry detects binding as a change in optical thickness at a sensor tip.
For B1, the Kd – broadly, the equilibrium constant for the complex coming apart – stood at 12.1 nM and the koff (as a rule, the rate constant with which the complex falls apart) turned out to be 0.00218 s⁻¹.
Consider B2, for which the Kd worked out at 6.17 nM and the koff was found to be 0.00164 s⁻¹.
Consider B3, for which the Kd was found to be 3.2 nM and the koff was determined as 0.00123 s⁻¹.
In turn, B4 had a Kd of 4.69 nM and a koff of 0.00109 s⁻¹.
The matching figures for B5: 2.24 nM and 0.000679 s⁻¹.
The matching figures for B6: 2.25 nM and 0.00065 s⁻¹.
The matching figures for B7: 4.03 nM and 0.00131 s⁻¹.
B8 gave a Kd of 5.83 nM and a koff of 0.00148 s⁻¹.
As for B9, the Kd amounted to 9.91 nM and the koff is 0.00233 s⁻¹.
The matching figures for B10: 9.39 nM and 0.00191 s⁻¹.
The molecule B11 registered a Kd of 5.64 nM and a koff of 0.00129 s⁻¹.
B12 came in with a Kd of 2.54 nM and a koff of 0.000352 s⁻¹.
Molecule B13 had a Kd of 1.24 nM and a dissociation rate constant (koff) of 0.000194 s⁻¹.
B14 had a Kd of 1.54 nM and a koff of 0.000328 s⁻¹.
Turning to B15, the Kd was determined as 0.372 nM and the koff was 0.00012 s⁻¹.
B16: the Kd turned out to be 1.02 nM and the koff was 0.000223 s⁻¹.
The matching figures for B17: 8.43 nM and 0.000832 s⁻¹.
The matching figures for B18: 0.639 nM and 0.000168 s⁻¹.
The matching figures for B19: 0.738 nM and 0.000207 s⁻¹.
For the molecule B20, the Kd worked out at 6.02 nM and the koff came to 0.000837 s⁻¹.
